# Measured values taken from US20200164038A1, “MODIFIED NUCLEOSIDE, NUCLEOTIDE, AND NUCLEIC ACID COMPOSITIONS” (ModernaTX, Inc., priority 2011, published 2020).
# B1: G-CSF: human G-CSF mRNA, SEQ ID NO: 6, polyA about 160 nt, Cap1, fully modified with 5-methylcytosine and pseudouridine (nucleic acid, listed as Homo sapiens)
# chain: GGGAAAUAAGAGAGAAAAGAAGAGUAAGAAGAAAUAUAAGAGCCACCAUGGCCGGUCCCGCGACCCAAAGCCCCAUGAAACUUAUGGCCCUGCAGUUGCUGCUUUGGCACUCGGCCCUCUGGACAGUCCAAGAAGCGACUCCUCUCGGACCUGCCUCAUCGUUGCCGCAGUCAUUCCUUUUGAAGUGUCUGGAGCAGGUGCGAAAGAUUCAGGGCGAUGGAGCCGCACUCCAAGAGAAGCUCUGCGCGACAUACAAACUUUGCCAUCCCGAGGAGCUCGUACUGCUCGGGCACAGCUUGGGGAUUCCCUGGGCUCCUCUCUCGUCCUGUCCGUCGCAGGCUUUGCAGUUGGCAGGGUGCCUUUCCCAGCUCCACUCCGGUUUGUUCUUGUAUCAGGGACUGCUGCAAGCCCUUGAGGGAAUCUCGCCAGAAUUGGGCCCGACGCUGGACACGUUGCAGCUCGACGUGGCGGAUUUCGCAACAACCAUCUGGCAGCAGAUGGAGGAACUGGGGAUGGCACCCGCGCUGCAGCCCACGCAGGGGGCAAUGCCGGCCUUUGCGUCCGCGUUUCAGCGCAGGGCGGGUGGAGUCCUCGUAGCGAGCCACCUUCAAUCAUUUUUGGAAGUCUCGUACCGGGUGCUGAGACAUCUUGCGCAGCCGUGAAGCGCUGCCUUCUGCGGGGCUUGCCUUCUGGCCAUGCCCUUCUUCUCUCCCUUGCACCUGUACCUCUUGGUCUUUGAAUAAAGCCUGAGUAGGAAG
# modifications: Cap1; polyA; 5-methylcytosine, pseudouridine
# How the values were obtained:
# neutrophil count = experiment: Intravenous administration of lipoplexed G-CSF mRNA, neutrophil count; format: in vivo; conditions: mice IV, 50 ug RNA in 10% lipoplex at days 0, 2 and 4; day 5
# Protocol: Neutrophils were measured at days 1, 5 and 8. Controls included non-specific mammalian RNA or the formulation buffer alone (F.Buffer). The mice were bled at days 1, 5 and 8 to determine the effect of mRNA-encoded human G-CSF to increase neutrophil count. The dosing regimen is shown in Table 64 as are the resulting neutrophil counts (thousands/uL; K/uL).
# [1] = LNP formulations in mice, serum G-CSF or EPO by ELISA; format: in vivo; conditions: mice IV; for time out to which protein expression was detectable: LNP
# Protocol: (§1) Formulations, listed in Table 31, were characterized by particle size, zeta potential, and encapsulation.
# LNP formulations, shown in Table 31 (above), were administered to mice (n=4) intravenously (IV) at a single modified mRNA dose 0.05 mg/kg or 0.005 mg/kg. There was also 3 control groups of mice (n=4) that were untreated. The mice were bled at 2 hours, 8 hours, 24 hours, 48 hours and 72 hours after they were administered with G-CSF or EPO modified mRNA formulations to determine the protein expression. Protein expression of G-CSF and EPO were determined using ELISA.
# [2] = test system: Neutrophil and reticulocyte count; experiment: Non-human primate hematology: neutrophil and reticulocyte count, hemoglobin, hematocrit, red blood cells; format: in vivo, cynomolgus monkey; conditions: for Female NHP Neutrophils: Table 39
# Protocol: LNP formulations, shown in Table 31 (above), were administered to non-human primates (NHP) (cynomolgus monkey) (n=2) as intravenous injection (IV). The NHP were administered a single modified mRNA IV dose of 0.5 mg/kg, 0.05 mg/kg or 0.005 mg/kg of G-CSF or EPO in a dose volume of 0.5 mL/kg. The NHPs were bled before dosing with the modified mRNA LNP formulations to determine protein expression in the serum and a baseline complete blood count. After administration with the G-CSF modified mRNA formulation the NHP were bled at 8, 24, 48 and 72 hours to determined protein expression. After administration with the EPO modified mRNA formulation the NHP were bled at 8, 24, 48, 72 hours and 7 days to determined protein expression.
# Samples collected from the NHPs after they were administered with G-CSF or EPO modified mRNA formulations were analyzed by ELISA to determine protein expression. Neutrophil and reticulocyte count was also determined pre-dose, 24 hours, 3 days, 7 days, 14 days and 18 days after administration of the modified G-CSF or EPO formulation.
# [3] = Human G-CSF modified RNA lipoplex I.M., S.C., I.V., serum human G-CSF ELISA 6 hours; format: in vivo, C57/BL6 mice; conditions: lipoplexed 30% RNAIMAX
# Protocol: 6 hours after administration of a formulation, serum was collected from each mouse to measure the amount of human G-CSF protein in the mouse serum by human G-CSF ELISA and the results are shown in Table 54.
# [4] = Time course in vivo study of LNP, serum G-CSF or EPO by ELISA; conditions: mice IV
# Protocol: as §1
# LNP formulations, shown in Table 31 (above), were administered to mice (n=5) intravenously (IV) at a single modified mRNA dose of 0.5, 0.05 or 0.005 mg/kg. The mice were bled at 8 hours, 24 hours, 72 hours and 6 days after they were administered with G-CSF or EPO modified mRNA formulations to determine protein expression using ELISA.
# [5] = LNP NPA-030-2, 0.005 mg/kg, 8 hours
# [6] = LNP NPA-030-2, 0.005 mg/kg, 24 hours
# [7] = LNP NPA-030-2, 0.05 mg/kg, 8 hours
# [8] = LNP NPA-030-2, 0.05 mg/kg, 24 hours
# [9] = Female NHP, 0.5 mg/kg, 24 hours
molecule,measurement,setting,value
B1,increase in neutrophil count above control,neutrophil count,four to five fold increase
same,G-CSF Serum Concentration,"[1]; LNP NPA-030-2, 0.005 mg/kg, 2 hours","3,447.8 pg/ml"
same,G-CSF Serum Concentration,[1]; [5],"11,454.0 pg/ml"
same,G-CSF Serum Concentration,[1]; [6],"4,960.2 pg/ml"
same,G-CSF Serum Concentration,"[1]; LNP NPA-030-2, 0.005 mg/kg, 48 hours",686.4 pg/mL
same,G-CSF Serum Concentration,"[1]; LNP NPA-030-2, 0.05 mg/kg, 2 hours","20,951.4 pg/ml"
same,G-CSF Serum Concentration,[1]; [7],"20,012.8 pg/ml"
same,G-CSF Serum Concentration,[1]; [8],"19,356.2 pg/ml"
same,G-CSF Serum Concentration,"[1]; LNP NPA-030-2, 0.05 mg/kg, 48 hours","1,963.0 pg/ml"
same,G-CSF Serum Concentration,"[1]; LNP NPA-030-2, 0.05 mg/kg, 72 hours",47.3 pg/mL
same,time out to which protein expression was detectable,[1]; 0.005 mg/kg,≥ 48 h
same,time out to which protein expression was detectable,[1]; 0.05 mg/kg,≥ 72 h
same,Hematocrit (HCT),"[2]; Female NHP, 0.005 mg/kg, 14/18 days",0.42 L/L
same,Hematocrit (HCT),"[2]; Female NHP, 0.005 mg/kg, 24 hours",0.42 L/L
same,Hematocrit (HCT),"[2]; Female NHP, 0.005 mg/kg, 3 days",0.41 L/L
same,Hematocrit (HCT),"[2]; Female NHP, 0.005 mg/kg, 7 days",0.42 L/L
same,Hematocrit (HCT),"[2]; Female NHP, 0.005 mg/kg, Pre-dose",0.42 L/L
same,Hematocrit (HCT),"[2]; Female NHP, 0.05 mg/kg, 14/18 days",0.4 L/L
same,Hematocrit (HCT),"[2]; Female NHP, 0.05 mg/kg, 24 hours",0.4 L/L
same,Hematocrit (HCT),"[2]; Female NHP, 0.05 mg/kg, 3 days",0.39 L/L
same,Hematocrit (HCT),"[2]; Female NHP, 0.05 mg/kg, 7 days",0.4 L/L
same,Hematocrit (HCT),"[2]; Female NHP, 0.05 mg/kg, Pre-dose",0.44 L/L
same,Hematocrit (HCT),"[2]; Female NHP, 0.5 mg/kg, 14/18 days",0.37 L/L
same,Hematocrit (HCT),[2]; [9],0.38 L/L
same,Red Blood Cells (RBC),[2]; [9],4.95 10^12/L
same,Hematocrit (HCT),"[2]; Female NHP, 0.5 mg/kg, 3 days",0.38 L/L
same,Hematocrit (HCT),"[2]; Female NHP, 0.5 mg/kg, 7 days",0.38 L/L
same,Hematocrit (HCT),"[2]; Female NHP, 0.5 mg/kg, Pre-dose",0.43 L/L
same,Hematocrit (HCT),"[2]; Male NHP, 0.005 mg/kg, 14/18 days",0.41 L/L
same,Hematocrit (HCT),"[2]; Male NHP, 0.005 mg/kg, 24 hours",0.4 L/L
same,Hematocrit (HCT),"[2]; Male NHP, 0.005 mg/kg, 3 days",0.4 L/L
same,Hematocrit (HCT),"[2]; Male NHP, 0.005 mg/kg, 7 days",0.39 L/L
same,Hematocrit (HCT),"[2]; Male NHP, 0.005 mg/kg, Pre-dose",0.42 L/L
same,Hematocrit (HCT),"[2]; Male NHP, 0.05 mg/kg, 14/18 days",0.44 L/L
same,Hematocrit (HCT),"[2]; Male NHP, 0.05 mg/kg, 24 hours",0.39 L/L
same,Hematocrit (HCT),"[2]; Male NHP, 0.05 mg/kg, 3 days",0.41 L/L
same,Hematocrit (HCT),"[2]; Male NHP, 0.05 mg/kg, 7 days",0.42 L/L
same,Hematocrit (HCT),"[2]; Male NHP, 0.05 mg/kg, Pre-dose",0.44 L/L
same,Hematocrit (HCT),"[2]; Male NHP, 0.5 mg/kg, 14/18 days",0.34 L/L
same,Hematocrit (HCT),"[2]; Male NHP, 0.5 mg/kg, 24 hours",0.37 L/L
same,Hematocrit (HCT),"[2]; Male NHP, 0.5 mg/kg, 3 days",0.39 L/L
same,Red Blood Cells (RBC),"[2]; Male NHP, 0.5 mg/kg, 3 days",1.91 10^12/L
same,Hematocrit (HCT),"[2]; Male NHP, 0.5 mg/kg, 7 days",0.39 L/L
same,Hematocrit (HCT),"[2]; Male NHP, 0.5 mg/kg, Pre-dose",0.46 L/L
same,neutrophils relative to pre-dose levels,"[2]; NHP IV LNP, all G-CSF groups",increase in neutrophils
same,Female NHP Neutrophils,"[2]; 0.005 mg/kg IV LNP, 14/18 days",0.057 10^12/L
same,Female NHP Neutrophils,"[2]; 0.005 mg/kg IV LNP, 24 hours",0.07 10^12/L
same,Female NHP Neutrophils,"[2]; 0.005 mg/kg IV LNP, 3 days",0 .054 10^12/L
same,Female NHP Neutrophils,"[2]; 0.005 mg/kg IV LNP, 7 days",0.066 10^12/L
same,Female NHP Neutrophils,"[2]; 0.005 mg/kg IV LNP, Pre-dose",0.06 10^12/L
same,Female NHP Neutrophils,"[2]; 0.05 mg/kg IV LNP, 14/18 days",0.06 10^12/L
same,Female NHP Neutrophils,"[2]; 0.05 mg/kg IV LNP, 24 hours",0.046 10^12/L
same,Female NHP Neutrophils,"[2]; 0.05 mg/kg IV LNP, 3 days",0.061 10^12/L
same,Female NHP Neutrophils,"[2]; 0.05 mg/kg IV LNP, 7 days",0.094 10^12/L
same,Female NHP Neutrophils,"[2]; 0.05 mg/kg IV LNP, Pre-dose",0.049 10^12/L
same,Female NHP Neutrophils,"[2]; 0.5 mg/kg IV LNP, 14/18 days",0.071 10^12/L
same,Female NHP Neutrophils,"[2]; 0.5 mg/kg IV LNP, 24 hours",0.046 10^12/L
same,Female NHP Neutrophils,"[2]; 0.5 mg/kg IV LNP, 3 days",0.017 10^12/L
same,Female NHP Neutrophils,"[2]; 0.5 mg/kg IV LNP, 7 days",0.021 10^12/L
same,Female NHP Neutrophils,"[2]; 0.5 mg/kg IV LNP, Pre-dose",0.055 10^12/L
same,Human G-CSF in Serum,"[3]; 100 μg (Luc-unsp 150 μg), I. V.",31.0 pg/mL
same,Human G-CSF in Serum,"[3]; 100 μg, S. C.",3.9 pg/mL
same,G-CSF Serum Concentration,[4]; [5],"1,550.6 pg/ml"
same,G-CSF Serum Concentration,[4]; [6],"5,068.9 pg/ml"
same,G-CSF Serum Concentration,[4]; [7],"462,312.5 pg/ml"
same,G-CSF Serum Concentration,[4]; [8],"80,903.8 pg/ml"
same,G-CSF Serum Concentration,"[4]; LNP NPA-030-2, 0.5 mg/kg, 8 hours",">1,250,000 pg/ml"
same,G-CSF Serum Concentration,"[4]; LNP NPA-030-2, 0.5 mg/kg, 24 hours","495,812.5 pg/ml"
same,G-CSF Serum Concentration,"[4]; LNP NPA-030-2, 0.5 mg/kg, 72 hours","1,325.6 pg/ml"
same,time out to which protein expression was detectable,"[4]; LNP, 0.005 mg/kg and 0.05 mg/kg",72 h
